Legend:
[1] = target: Monoubiquitinated PCNA ((Ub)3-PCNA): a single ubiquitin moiety on K164 of each monomer within a homotrimeric clamp ring (human) (UniProt P12004)
[2] = target: Wild-type PCNA (human) (human) (UniProt P12004)
Chain of Wild-type PCNA (human) (human) (P12004 whole entry): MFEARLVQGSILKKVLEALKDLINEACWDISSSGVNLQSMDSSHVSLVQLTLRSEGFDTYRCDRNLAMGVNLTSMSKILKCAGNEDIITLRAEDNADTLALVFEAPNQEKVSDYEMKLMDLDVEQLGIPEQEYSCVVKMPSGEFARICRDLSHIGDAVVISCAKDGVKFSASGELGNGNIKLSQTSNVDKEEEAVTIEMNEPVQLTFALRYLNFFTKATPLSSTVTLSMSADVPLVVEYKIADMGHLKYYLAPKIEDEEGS

B1: Pol η (human DNA polymerase eta, full length, wild type, unlabeled) (enzyme)
chain: MATGQDRVVALVDMDCFFVQVEQRQNPHLRNKPCAVVQYKSWKGGGIIAVSYEARAFGVTRSMWADDAKKLCPDLLLAQVRESRGKANLTKYREASVEVMEIMSRFAVIERASIDEAYVDLTSAVQERLQKLQGQPISADLLPSTYIEGLPQGPTTAEETVQKEGMRKQGLFQWLDSLQIDNLTSPDLQLTVGAVIVEEMRAAIERETGFQCSAGISHNKVLAKLACGLNKPNRQTLVSHGSVPQLFSQMPIRKIRSLGGKLGASVIEILGIEYMGELTQFTESQLQSHFGEKNGSWLYAMCRGIEHDPVKPRQLPKTIGCSKNFPGKTALATREQVQWWLLQLAQELEERLTKDRNDNDRVATQLVVSIRVQGDKRLSSLRRCCALTRYDAHKMSHDAFTVIKNCNTSGIQTEWSPPLTMLFLCATKFSASAPSSSTDITSFLSSDPSSLPKVPVTSSEAKTQGSGPAVTATKKATTSLESFFQKAAERQKVKEASLSSLTAPTQAPMSNSPSKPSLPFQTSQSTGTEPFFKQKSLLLKQKQLNNSSVSSPQQNPWSNCKALPNSLPTEYPGCVPVCEGVSKLEESSKATPAEMDLAHNSQSMHASSASKSVLEVTQKATPNPSLLAAEDQVPCEKCGSLVPVWDMPEHMDYHFALELQKSFLQPHSSNPQVVSAVSHQGKRNPKSPLACTNKRPRPEGMQTLESFFKPLTH
**Q.** What does the source list for B1?
**A.** abundance of the pol η TLS complex (P2, probability of insertion at i = 2) on undamaged TT P/T DNA: increase in the presence of (Ub)3-PCNA [1]: 2.75 fold; abundance of the pol η TLS complex (P2, probability of insertion at i = 2) on undamaged TT P/T DNA: increase in the presence of PCNA [2]: 2.53 fold; primer extension by pol η on the undamaged TT P/T DNA substrate under single turnover conditions: stimulation in the presence of PCNA against pol η alone [2]: 2.02 fold

Source: article PMC5123862
